The results in this text go back to article PMC3497731 (Bioscience Reports, 2012).

Several values for one entry are separate records, joined by “and”; a condition that tells them apart may be missing. Identical values can stand only once.

Series [1] concerns the target adiponectin secreted from isolated rat primary adipocytes (rat (endogenous in primary adipocytes)). Description: native gel or EMSA.
Series [2] deals with the molecule itself. Description: non-reducing denaturing SDS/PAGE.
Series [3] concerns the molecule itself. Description: native gel or EMSA. (Mobility shift assays separate free from complexed probe on a gel.)
Series [4] deals with the molecule itself. In words: native gel or EMSA. This is another data set of the same source.
The series “SEC” deals with the molecule itself. Description: SEC. On the technique in general: SEC sorts molecules by how far they enter the pores of the column.

What is called stoichiometry N is a count of units in the complex or per binding partner. On to “adiponectin secreted from isolated rat primary adipocytes (natural protein)”, for which, in series [1], the stoichiometry N is 6 and 3.

B1: FLAG epitope-tagged mouse adiponectin (natural protein, UniProt Q60994 18-247, looked up)
chain: EDDVTTTEELAPALVPPPKGTCAGWMAGIPGHPGHNGTPGRDGRDGTPGEKGEKGDAGLLGPKGETGDVGMTGAEGPRGFPGTPGRKGEPGEAAYVYRSAFSVGLETRVTVPNVPIRFTKIFYNQQNHYDGSTGKFYCNIPGLYYFSYHITVYMKDVKVSLFKKDKAVLFTYDQYQEKNVDQASGSVLLHLEVGDQVWLQVYGDGDHNGLYADNVNDSTFTGFLLYHDTN
Regarding B1, the “stoichiometry N” value in series [2] is 2; in “native gel or EMSA [3]” it was 6 and 3.

B2: adiponectin of differentiated 3T3-L1 adipocytes (natural protein, mouse (endogenous in 3T3-L1), UniProt Q60994 18-247, looked up)
chain: B1 chain
On to B2, for which the “stoichiometry N” value in the series “native gel or EMSA [4]” was 6 and 3.

B3: adiponectin purified from bovine serum (natural protein, UniProt Q3Y5Z3 18-240, looked up)
chain: EDNMEDPPLPKGACAGWMAGIPGHPGHNGTPGRDGRDGTPGEKGEKGDPGLVGPKGDTGETGITGIEGPRGFPGTPGRKGEPGESAYVYRSAFSVGLERQVTVPNVPIRFTKIFYNQQNHYDGTTGKFLCNIPGLYYFSYHITVYLKDVKVSLYKNDKALLFTHDQFQDKNVDQASGSVLLYLEKGDQVWLQVYEGENHNGVYADNVNDSTFTGFLLYHNIVE
On to B3, for which the “stoichiometry N” value in “SEC” was determined as 6.
